Experimental data: the supplement of paper PMC12338614
± gives the uncertainty stated by the source.

B1: library; numbered along this chain (parent)
chain: MEVVDPQQLGMFTEGELMSVGMDTFIHRIDSTEVIYQPRRKRAKLIGKYLMGDLLGEGSYGKVKEVLDSETLCRRAVKILKKKKLRRIPNGEANVKKEIQLLRRLRHKNVIQLVDVLYNEEKQKMYMVMEYCVCGMQEMLDSVPEKRFPVCQAHGYFCQLIDGLEYLHSQGIVHKDIKPGNLLLTTGGTLKISDLGVAEALHPFAADDTCRTSQGSPAFQPPEIANGLDTFSGFKVDIWSAGVTLYNITTGLYPFEGDNIYKLFENIGKGSYAIPGDCGPPLSDLLKGMLEYEPAKRFSIRQIRQHSWFRKKHPPAEAPVPIPPSPDTKDRWRSMTVVPYLEDLHGADEDEDLFDIEDDIIYTQDFTVPGQVPEEEASHNGQRRGLPKAVCMNGTEAAQLSTKSRAEGRAPNPARKACSASSKIRRLSACKQQ

Variants of: B1
Assay: STK11 functional score (HeLa growth suppression), rescaled enrichment; synonymous median = 1, nonsense median = 0 (normalised score)
Conditions: with HeLa; variant type: missense
In short: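 In HeLa, Bxb1 integrated POPCode codon-randomised libraries of codon-optimised STK11 at an AAVS1 landing pad; three regions were each transfected three times. Integrants, marked as BFP-negative and mCherry-positive, were FACS-sorted 4–5 days after electroporation and expanded for about two weeks before tiled gDNA amplicons were sequenced on NextSeq (~2 million reads per tile). Each functional score is a post/pre-selection log ratio corrected to wild type, rescaled to the synonymous and nonsense medians, and merged across codons and replicate transfections, with error estimated by bootstrapping.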
For MEVVDPQQLGMFTEGELMSVGMDTFIHRIDSTEVIYQPRRKRAKLIGKYLMGDLLGEGSYGKVKEVLDSETLCRRAVKILKKKKLRRIPNGEANVKKEIQLLRRLRHKNVIQLVDVLYNEEKQKMYMVMEYCVCGMQEMLDSVPEKRFPVCQAHGYFCQLIDGLEYLHSQGIVHKDIKPGNLLLTTGGTLKISDLGVAEALHPFAADDTCRTSQGSPAFQPPEIANGLDTFSGFKVDIWSAGVTLYNITTGLYPFEGDNIYKLAENIGKGSYAIPGDCGPPLSDLLKGMLEYEPAKRFSIRQIRQHSWFRKKHPPAEAPVPIPPSPDTKDRWRSMTVVPYLEDLHGADEDEDLFDIEDDIIYTQDFTVPGQVPEEEASHNGQRRGLPKAVCMNGTEAAQLSTKSRAEGRAPNPARKACSASSKIRRLSACKQQ [F264A], the STK11 functional score was 1.16 ± 0.36.
With MEVVDPQQLGMFTEGELMSVGMDTFIHRIDSTEVIYQPRRKRAKLIGKYLMGDLLGEGSYGKVKEVLDSETLCRRAVKILKKKKLRRIPNGEANVKKEIQLLRRLRHKNVIQLVDVLYNEEKQKMYMVMEYCVCGMQEMLDSVPEKRFPVCQAHGYFCQLIDGLEYLHSQGIVHKDIKPGNLLLTTGGTLKISDLGVAEALHPFAADDTCRTSQGSPAFQPPEIANGLDTFSGFKVDIWSAGVTLYNITTGLYPFEGDNIYKGFENIGKGSYAIPGDCGPPLSDLLKGMLEYEPAKRFSIRQIRQHSWFRKKHPPAEAPVPIPPSPDTKDRWRSMTVVPYLEDLHGADEDEDLFDIEDDIIYTQDFTVPGQVPEEEASHNGQRRGLPKAVCMNGTEAAQLSTKSRAEGRAPNPARKACSASSKIRRLSACKQQ [L263G] the STK11 functional score was 0.983 ± 0.18.
With MEVVDPQQLGMFTEGELMSVGMDTFIHRIDSTEVIYQPRRKRAKLIGKYLMGDLLGEGSYGKVKEVLDSETLCRRAVKILKKKKLRRIPNGEANVKKEIQLLRRLRHKNVIQLVDVLYNEEKQKMYMVMEYCVCGMQEMLDSVPEKRFPVCQAHGYFCQLIDGLEYLHSQGIVHKDIKPGNLLLTTGGTLKISDLGVAEALHPFAADDTCRTSQGSPAFQPPEIANGLDTFSGFKVDIWSAGVTLYNITTGLYPFEGDNIYKEFENIGKGSYAIPGDCGPPLSDLLKGMLEYEPAKRFSIRQIRQHSWFRKKHPPAEAPVPIPPSPDTKDRWRSMTVVPYLEDLHGADEDEDLFDIEDDIIYTQDFTVPGQVPEEEASHNGQRRGLPKAVCMNGTEAAQLSTKSRAEGRAPNPARKACSASSKIRRLSACKQQ [L263E] the STK11 functional score was 1.04 ± 0.17.
Variant MEVVDPQQLGMFTEGELMSVGMDTFIHRIDSTEVIYQPRRKRAKLIGKYLMGDLLGEGSYGKVKEVLDSETLCRRAVKILKKKKLRRIPNGEANVKKEIQLLRRLRHKNVIQLVDVLYNEEKQKMYMVMEYCVCGMQEMLDSVPEKRFPVCQAHGYFCQLIDGLEYLHSQGIVHKDIKPGNLLLTTGGTLKISDLGVAEALHPFAADDTCRTSQGSPAFQPPEIANGLDTFSGFKVDIWSAGVTLYNITTGLYPFEGDNIYKRFENIGKGSYAIPGDCGPPLSDLLKGMLEYEPAKRFSIRQIRQHSWFRKKHPPAEAPVPIPPSPDTKDRWRSMTVVPYLEDLHGADEDEDLFDIEDDIIYTQDFTVPGQVPEEEASHNGQRRGLPKAVCMNGTEAAQLSTKSRAEGRAPNPARKACSASSKIRRLSACKQQ [L263R] has an STK11 functional score of 1.39 ± 0.24.
For MEVVDPQQLGMFTEGELMSVGMDTFIHRIDSTEVIYQPRRKRAKLIGKYLMGDLLGEGSYGKVKEVLDSETLCRRAVKILKKKKLRRIPNGEANVKKEIQLLRRLRHKNVIQLVDVLYNEEKQKMYMVMEYCVCGMQEMLDSVPEKRFPVCQAHGYFCQLIDGLEYLHSQGIVHKDIKPGNLLLTTGGTLKISDLGVAEALHPFAADDTCRTSQGSPAFQPPEIANGLDTFSGFKVDIWSAGVTLYNITTGLYPFEGDNIYKIFENIGKGSYAIPGDCGPPLSDLLKGMLEYEPAKRFSIRQIRQHSWFRKKHPPAEAPVPIPPSPDTKDRWRSMTVVPYLEDLHGADEDEDLFDIEDDIIYTQDFTVPGQVPEEEASHNGQRRGLPKAVCMNGTEAAQLSTKSRAEGRAPNPARKACSASSKIRRLSACKQQ [L263I], the STK11 functional score was 1.57 ± 0.28.
Variant MEVVDPQQLGMFTEGELMSVGMDTFIHRIDSTEVIYQPRRKRAKLIGKYLMGDLLGEGSYGKVKEVLDSETLCRRAVKILKKKKLRRIPNGEANVKKEIQLLRRLRHKNVIQLVDVLYNEEKQKMYMVMEYCVCGMQEMLDSVPEKRFPVCQAHGYFCQLIDGLEYLHSQGIVHKDIKPGNLLLTTGGTLKISDLGVAEALHPFAADDTCRTSQGSPAFQPPEIANGLDTFSGFKVDIWSAGVTLYNITTGLYPFEGDNIYKDFENIGKGSYAIPGDCGPPLSDLLKGMLEYEPAKRFSIRQIRQHSWFRKKHPPAEAPVPIPPSPDTKDRWRSMTVVPYLEDLHGADEDEDLFDIEDDIIYTQDFTVPGQVPEEEASHNGQRRGLPKAVCMNGTEAAQLSTKSRAEGRAPNPARKACSASSKIRRLSACKQQ [L263D] has an STK11 functional score of 0.549 ± 0.14.
With MEVVDPQQLGMFTEGELMSVGMDTFIHRIDSTEVIYQPRRKRAKLIGKYLMGDLLGEGSYGKVKEVLDSETLCRRAVKILKKKKLRRIPNGEANVKKEIQLLRRLRHKNVIQLVDVLYNEEKQKMYMVMEYCVCGMQEMLDSVPEKRFPVCQAHGYFCQLIDGLEYLHSQGIVHKDIKPGNLLLTTGGTLKISDLGVAEALHPFAADDTCRTSQGSPAFQPPEIANGLDTFSGFKVDIWSAGVTLYNITTGLYPFEGDNIYKWFENIGKGSYAIPGDCGPPLSDLLKGMLEYEPAKRFSIRQIRQHSWFRKKHPPAEAPVPIPPSPDTKDRWRSMTVVPYLEDLHGADEDEDLFDIEDDIIYTQDFTVPGQVPEEEASHNGQRRGLPKAVCMNGTEAAQLSTKSRAEGRAPNPARKACSASSKIRRLSACKQQ [L263W] the STK11 functional score was -0.0482 ± 0.1.
MEVVDPQQLGMFTEGELMSVGMDTFIHRIDSTEVIYQPRRKRAKLIGKYLMGDLLGEGSYGKVKEVLDSETLCRRAVKILKKKKLRRIPNGEANVKKEIQLLRRLRHKNVIQLVDVLYNEEKQKMYMVMEYCVCGMQEMLDSVPEKRFPVCQAHGYFCQLIDGLEYLHSQGIVHKDIKPGNLLLTTGGTLKISDLGVAEALHPFAADDTCRTSQGSPAFQPPEIANGLDTFSGFKVDIWSAGVTLYNITTGLYPFEGDNIYKFFENIGKGSYAIPGDCGPPLSDLLKGMLEYEPAKRFSIRQIRQHSWFRKKHPPAEAPVPIPPSPDTKDRWRSMTVVPYLEDLHGADEDEDLFDIEDDIIYTQDFTVPGQVPEEEASHNGQRRGLPKAVCMNGTEAAQLSTKSRAEGRAPNPARKACSASSKIRRLSACKQQ [L263F] was tested, and the STK11 functional score was 0.857 ± 0.29.
Variant MEVVDPQQLGMFTEGELMSVGMDTFIHRIDSTEVIYQPRRKRAKLIGKYLMGDLLGEGSYGKVKEVLDSETLCRRAVKILKKKKLRRIPNGEANVKKEIQLLRRLRHKNVIQLVDVLYNEEKQKMYMVMEYCVCGMQEMLDSVPEKRFPVCQAHGYFCQLIDGLEYLHSQGIVHKDIKPGNLLLTTGGTLKISDLGVAEALHPFAADDTCRTSQGSPAFQPPEIANGLDTFSGFKVDIWSAGVTLYNITTGLYPFEGDNIYKQFENIGKGSYAIPGDCGPPLSDLLKGMLEYEPAKRFSIRQIRQHSWFRKKHPPAEAPVPIPPSPDTKDRWRSMTVVPYLEDLHGADEDEDLFDIEDDIIYTQDFTVPGQVPEEEASHNGQRRGLPKAVCMNGTEAAQLSTKSRAEGRAPNPARKACSASSKIRRLSACKQQ [L263Q] has an STK11 functional score of 0.281 ± 0.62.
In the case of MEVVDPQQLGMFTEGELMSVGMDTFIHRIDSTEVIYQPRRKRAKLIGKYLMGDLLGEGSYGKVKEVLDSETLCRRAVKILKKKKLRRIPNGEANVKKEIQLLRRLRHKNVIQLVDVLYNEEKQKMYMVMEYCVCGMQEMLDSVPEKRFPVCQAHGYFCQLIDGLEYLHSQGIVHKDIKPGNLLLTTGGTLKISDLGVAEALHPFAADDTCRTSQGSPAFQPPEIANGLDTFSGFKVDIWSAGVTLYNITTGLYPFEGDNIYKVFENIGKGSYAIPGDCGPPLSDLLKGMLEYEPAKRFSIRQIRQHSWFRKKHPPAEAPVPIPPSPDTKDRWRSMTVVPYLEDLHGADEDEDLFDIEDDIIYTQDFTVPGQVPEEEASHNGQRRGLPKAVCMNGTEAAQLSTKSRAEGRAPNPARKACSASSKIRRLSACKQQ [L263V], the STK11 functional score is reported as 0.76 ± 0.22.
Work on MEVVDPQQLGMFTEGELMSVGMDTFIHRIDSTEVIYQPRRKRAKLIGKYLMGDLLGEGSYGKVKEVLDSETLCRRAVKILKKKKLRRIPNGEANVKKEIQLLRRLRHKNVIQLVDVLYNEEKQKMYMVMEYCVCGMQEMLDSVPEKRFPVCQAHGYFCQLIDGLEYLHSQGIVHKDIKPGNLLLTTGGTLKISDLGVAEALHPFAADDTCRTSQGSPAFQPPEIANGLDTFSGFKVDIWSAGVTLYNITTGLYPFEGDNIYKCFENIGKGSYAIPGDCGPPLSDLLKGMLEYEPAKRFSIRQIRQHSWFRKKHPPAEAPVPIPPSPDTKDRWRSMTVVPYLEDLHGADEDEDLFDIEDDIIYTQDFTVPGQVPEEEASHNGQRRGLPKAVCMNGTEAAQLSTKSRAEGRAPNPARKACSASSKIRRLSACKQQ [L263C] yielded an STK11 functional score of 1.11 ± 0.25.
MEVVDPQQLGMFTEGELMSVGMDTFIHRIDSTEVIYQPRRKRAKLIGKYLMGDLLGEGSYGKVKEVLDSETLCRRAVKILKKKKLRRIPNGEANVKKEIQLLRRLRHKNVIQLVDVLYNEEKQKMYMVMEYCVCGMQEMLDSVPEKRFPVCQAHGYFCQLIDGLEYLHSQGIVHKDIKPGNLLLTTGGTLKISDLGVAEALHPFAADDTCRTSQGSPAFQPPEIANGLDTFSGFKVDIWSAGVTLYNITTGLYPFEGDNIYKMFENIGKGSYAIPGDCGPPLSDLLKGMLEYEPAKRFSIRQIRQHSWFRKKHPPAEAPVPIPPSPDTKDRWRSMTVVPYLEDLHGADEDEDLFDIEDDIIYTQDFTVPGQVPEEEASHNGQRRGLPKAVCMNGTEAAQLSTKSRAEGRAPNPARKACSASSKIRRLSACKQQ [L263M] showed an STK11 functional score of 0.891 ± 0.17.
With MEVVDPQQLGMFTEGELMSVGMDTFIHRIDSTEVIYQPRRKRAKLIGKYLMGDLLGEGSYGKVKEVLDSETLCRRAVKILKKKKLRRIPNGEANVKKEIQLLRRLRHKNVIQLVDVLYNEEKQKMYMVMEYCVCGMQEMLDSVPEKRFPVCQAHGYFCQLIDGLEYLHSQGIVHKDIKPGNLLLTTGGTLKISDLGVAEALHPFAADDTCRTSQGSPAFQPPEIANGLDTFSGFKVDIWSAGVTLYNITTGLYPFEGDNIYKTFENIGKGSYAIPGDCGPPLSDLLKGMLEYEPAKRFSIRQIRQHSWFRKKHPPAEAPVPIPPSPDTKDRWRSMTVVPYLEDLHGADEDEDLFDIEDDIIYTQDFTVPGQVPEEEASHNGQRRGLPKAVCMNGTEAAQLSTKSRAEGRAPNPARKACSASSKIRRLSACKQQ [L263T] the STK11 functional score was 1.22 ± 0.17.
With MEVVDPQQLGMFTEGELMSVGMDTFIHRIDSTEVIYQPRRKRAKLIGKYLMGDLLGEGSYGKVKEVLDSETLCRRAVKILKKKKLRRIPNGEANVKKEIQLLRRLRHKNVIQLVDVLYNEEKQKMYMVMEYCVCGMQEMLDSVPEKRFPVCQAHGYFCQLIDGLEYLHSQGIVHKDIKPGNLLLTTGGTLKISDLGVAEALHPFAADDTCRTSQGSPAFQPPEIANGLDTFSGFKVDIWSAGVTLYNITTGLYPFEGDNIYKSFENIGKGSYAIPGDCGPPLSDLLKGMLEYEPAKRFSIRQIRQHSWFRKKHPPAEAPVPIPPSPDTKDRWRSMTVVPYLEDLHGADEDEDLFDIEDDIIYTQDFTVPGQVPEEEASHNGQRRGLPKAVCMNGTEAAQLSTKSRAEGRAPNPARKACSASSKIRRLSACKQQ [L263S] the STK11 functional score was 1.18 ± 0.19.
